# In patent publication US20200158726A1 (NORDIC BIOSCIENCE A S, published 2020):
# No end group written: not given here.
# Columns and labels:
# [1] = biological target: T1, deselection peptide DMDYLPRVPNQ; assay: competitive peptide assay against the biotinylated screening peptide
# T1 construct: Synthetic peptide
# T1 peptide: DMDYLPRVPNQ
# [2] = biological target: T2, truncated peptide SFSGFLVA; assay: as above
# T2 construct: Synthetic peptide; the selection peptide without its two C-terminal residues PM
# T2 peptide: SFSGFLVA
# [3] = biological target: T3, selection peptide SFSGFLVAPM-COOH (human); assay: competitive peptide assay (preliminary assays); the peptide also blocked the Western blot bands
# T3 construct: Synthetic peptide; also called calibrator peptide
# T3 peptide: SFSGFLVAPM-OH
# collagen type X alpha 1 = biological target: T4, collagen type X alpha 1 (human, UniProt Q03692 19-680); assay: Western blot of U2-OS cell lysate, antibody at 1 ug/ml
# T4 construct: Endogenous protein in U2-OS lysates, seen as bands of about 59 kDa (monomer), 76 kDa and 120 kDa (dimer); also called type X collagen; Col10
# T4 sequence (Q03692 19-680): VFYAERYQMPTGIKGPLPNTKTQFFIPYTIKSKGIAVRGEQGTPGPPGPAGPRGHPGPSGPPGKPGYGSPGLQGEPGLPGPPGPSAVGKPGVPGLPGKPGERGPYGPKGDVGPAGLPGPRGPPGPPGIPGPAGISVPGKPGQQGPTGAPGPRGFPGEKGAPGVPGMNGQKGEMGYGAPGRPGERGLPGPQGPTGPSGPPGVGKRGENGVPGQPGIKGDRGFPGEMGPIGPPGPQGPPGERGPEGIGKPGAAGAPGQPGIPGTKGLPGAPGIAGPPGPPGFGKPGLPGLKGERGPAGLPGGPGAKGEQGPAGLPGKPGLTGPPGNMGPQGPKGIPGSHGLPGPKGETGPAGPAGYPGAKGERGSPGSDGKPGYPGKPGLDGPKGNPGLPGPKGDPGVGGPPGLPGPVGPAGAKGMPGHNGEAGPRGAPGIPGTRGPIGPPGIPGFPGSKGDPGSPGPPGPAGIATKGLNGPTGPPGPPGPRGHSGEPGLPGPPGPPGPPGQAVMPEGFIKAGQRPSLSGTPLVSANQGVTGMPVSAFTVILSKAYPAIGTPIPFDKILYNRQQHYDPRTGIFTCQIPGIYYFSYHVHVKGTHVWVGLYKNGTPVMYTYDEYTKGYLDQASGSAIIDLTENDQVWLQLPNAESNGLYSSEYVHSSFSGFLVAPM
# Experimental: Human osteosarcoma cell lines (U2-OS; collagen X producing cell line) were purchased from ATCC (USA) and cultivated in DMEM medium containing 10% FBS, 2 mM L-Glutamine, 100 units/ml penicillin and 100 ug/ml streptomycin. Cells were grown in T25 flasks in a 37° C. incubator at 5% CO2, changing the medium every two or three days. When the cells reached 90% confluency the cell lysates were prepared using RIPA lysis buffer with following procedure: the cell media was removed and the cells washed twice with PBS, followed by adding cold RIPA lysis buffer (25 mM Tris-HCl pH7, 6; 150 mM NaCl, 1% Sodium deoxycholate acid). An EDTA free cocktail tablet was added to the flask then RIPA buffer was distributed to cover the whole surface of flask and incubated on ice for 10 minutes. The cells were scraped and centrifuged at 10,000 RPM at 4° C. for 10 minutes and the supernatants stored at −20° C. until use.
# Protein bands were blotted onto a nitrocellulose membrane using the Invitrogen i-Blot gel transfer system according to manufacturer's instruction. The membrane was blocked in blocking buffer (5% skimmed milk in Tris-buffered saline with Tween (TBST)) overnight at 4° C. The monoclonal antibody, NB509-11G8 and commercial collagen type X antibody X53 (for comparison purposes) were applied in a concentration of 1 μg/ml in TBST with 5% skim milk powder and shaken overnight at 4° C. […]
binder,measurement,setting,value
"monoclonal antibody NB509-11G8 (antibody, mouse IgG1, kappa, V domains shown, Mouse IgG1, kappa, from a hybridoma) VH: EVQLQQSGAELVKPGASVKLSCTASGFNIKDTHMHWVKQRPEQGLEWIGRIDPANVNTKYDPRFQGRATITADTSSNTAYLQLSRLTSEDTAVYYCATSGSSPWGQGTTLTVSS VL: DVVMTQTPLSLPVSLGDQASISCRSSQSLVHSNGYTYSNWYLQKPGQSPKLLIYRVSNRFSGVPDRFSGSGSGTDFTLKISRVEADDLGVYFCSQSTHVPWTFGGGTKLEIKR",binding result,[1],no binding
same,binding result,[2],no binding
same,binding result,[3],binds
same,binding result,collagen type X alpha 1,binds
